The values that follow come from publication doi:10.1101/713511.

Data set [1] concerns the target T1, SERF1a (human, UniProt O75920-2 1-62).
T1 sequence: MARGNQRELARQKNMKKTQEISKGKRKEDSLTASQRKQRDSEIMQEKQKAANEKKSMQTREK
Kind of data set: ITC.

Data set [2] addresses T2, Atto550-SERF1a (human, UniProt O75920-2 1-62).
T2 sequence: T1 sequence
The data set can be described thus: fluorescence anisotropy.

Data set [3] deals with T3, YDL085C-A (S. cerevisiae, UniProt Q3E7B7 1-68).
T3 sequence: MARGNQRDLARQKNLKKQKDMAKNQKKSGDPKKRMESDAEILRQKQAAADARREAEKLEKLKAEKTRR
Kind of data set: fluorescence anisotropy.

Data set [4] deals with T1, SERF1a. Kind of data set: fluorescence anisotropy.
The target in data set [5] is T2, Atto550-SERF1a. The data set can be described thus: fluorescence anisotropy. The source holds these as a separate data set.

B1: R21(-) / 21R(-) (ssRNA)
RNA: ACUGCUAGAGAUUUUCCACAU
With B1, the Kd in data set [1] turned out to be 5.99 ± 2.32 µM; in data set [2], 4.39 ± 1.59 µM.

B2: Cy3-R21(-) (ssRNA)
RNA: ACUGCUAGAGAUUUUCCACAU
For B2, the figures for the dissociation constant Kd in data set [3] and in data set [4] were 2.35 ± 0.56 µM and 4.81 ± 0.48 µM, respectively.

B3: dsDNA 21mer (dsDNA)
DNA 1: ATGTGGAAAATCTCTAGCAGT
DNA 2: ACTGCTAGAGATTTTCCACAT
As to B3, the binding result in data set [5] is given as “no binding”.
